Data taken from US20240382605A1 (IONIS PHARMACEUTICALS, published 2024).
Where two headings read alike, the source gives them in different places. Values belong to the binder of their own block, whether it stands above or below them. Starred links: 1 amine or outer side, 2 acyl side, 3 side chain; linkers in the order of their positions; H or OH if unused. Positions of bridges follow the written chain, without caps; N, C: chain ends. Non-standard residues stand in square brackets, D forms with d. Primed or numbered codes have the meaning given here. No end group written: not given here. *: point of attachment. azidopropyl = N-terminal modification AzPro, [N-]=[N+]=NCCC*; TATB = O=C(C[*:1])N1CN(C(=O)C[*:2])CN(C(=O)C[*:3])C1; oligonucleotide 1590463 = not defined here; Hyp = O=C(O)[C@@H]1C[C@@H](O)CN1; azidopropyl″ = [N-]=[N+]=NCCC*; Aze = O=C(O)[C@@H]1CCN1

Legend:
[1] = target: T1, hCD71-Nluc fusion protein (human, UniProt P02786 1-760); test: nanoBRET competition, tracer BCY17871-1598988 60 nM, HEK293 hCD71-Nluc membranes
T1 construct: whole, on cells; Used as crude membrane fractions of HEK293 cells stably expressing hCD71-Nluc; also called human transferrin receptor, CD71, fused to NanoLuc; not shown: NanoLuc (ProMega) luciferase joined through its N-terminal Val

[2] = target: T1, hCD71-Nluc fusion protein; test: as above; remark: listed apart in the source
Experimental: (§1) The mixtures were incubated for 3 hours at room temperature to reach equilibrium. To initiate BRET, 12.4 μL of 100 μM of the Nluc substrate furimazine was added to each well, and the mixtures were incubated for 5-30 minutes. The assay plate was read on a Promega GlowMax Discover plate reader at wavelengths of 450 nm and 600 nm, and the ratio of emissions at wavelengths 450/600 were used to yield % BRET efficiency. Data was subjected to non-linear regression, then fitted to a single site binding hyperbolic function.
(§2) In order to evaluate modified oligonucleotides conjugated to CD71 bicycle ligands and RNAi compounds conjugated to CD71 bicycle ligands, the assay was modified as follows. […] Modified oligonucleotides were conjugated to the bicycle ligands through a SPAAC reaction These were then added at a range of concentrations in triplicate assays points, and the mixtures were incubated for 3 hours at room temperature. BRET was initiated with the addition of furimazine and the assay was completed as described above.

[3] = target: T1, hCD71-Nluc fusion protein; test: as above; remark: listed apart in the source
Experimental: as §1, §2

[4] = target: T1, hCD71-Nluc fusion protein; test: as above; remark: listed apart in the source
Experimental: as §1, §2

[5] = target: T2, CD71 (Homo sapiens (Human), UniProt P02786 89-760); test: SPR Biacore X100, conjugate duplexed to biotin-DNA on streptavidin chip, CD71 injected 6.25-100 nM, 1:1 fit
T2 construct: also called transferrin receptor; TfR1
Experimental: The binding affinity for each of the following modified oligonucleotides conjugated to CD71 bicycle ligands was tested on a Biacore X100 surface plasmon resonance (SPR) instrument. 200 units of modified oligonucleotides conjugated to CD71 bicycle ligand were immobilized on a streptavidin chip by injecting a 20 nM solution of 5′-Biotin-labeled DNA (5′-Biotin-TEG-DNA complement to modified oligonucleotide) duplexed with modified oligonucleotides conjugated to CD71 bicycle ligand in HBS—P (10 mM HEPES, pH 7.4, 150 mM NaCl, 0.0005% Surfactant P20) running buffer. […] Kinetic and equilibrium binding analysis was performed using Biacore X100 Evaluation Software, applying 1:1 binding fit.

[6] = target: T1, hCD71-Nluc fusion protein; test: nanoBRET competition, tracer BCY17871-1598988 60 nM, HEK293 hCD71-Nluc membranes; remark: listed apart in the source
Experimental: as §1, §2

[7] = target: T1, hCD71-Nluc fusion protein; test: as above; remark: listed apart in the source
[8] = target: T1, hCD71-Nluc fusion protein; test: as above; remark: listed apart in the source
[9] = target: T1, hCD71-Nluc fusion protein; test: as above; remark: listed apart in the source

T1 sequence (P02786 other isoform, or with tags, fused parts or gaps): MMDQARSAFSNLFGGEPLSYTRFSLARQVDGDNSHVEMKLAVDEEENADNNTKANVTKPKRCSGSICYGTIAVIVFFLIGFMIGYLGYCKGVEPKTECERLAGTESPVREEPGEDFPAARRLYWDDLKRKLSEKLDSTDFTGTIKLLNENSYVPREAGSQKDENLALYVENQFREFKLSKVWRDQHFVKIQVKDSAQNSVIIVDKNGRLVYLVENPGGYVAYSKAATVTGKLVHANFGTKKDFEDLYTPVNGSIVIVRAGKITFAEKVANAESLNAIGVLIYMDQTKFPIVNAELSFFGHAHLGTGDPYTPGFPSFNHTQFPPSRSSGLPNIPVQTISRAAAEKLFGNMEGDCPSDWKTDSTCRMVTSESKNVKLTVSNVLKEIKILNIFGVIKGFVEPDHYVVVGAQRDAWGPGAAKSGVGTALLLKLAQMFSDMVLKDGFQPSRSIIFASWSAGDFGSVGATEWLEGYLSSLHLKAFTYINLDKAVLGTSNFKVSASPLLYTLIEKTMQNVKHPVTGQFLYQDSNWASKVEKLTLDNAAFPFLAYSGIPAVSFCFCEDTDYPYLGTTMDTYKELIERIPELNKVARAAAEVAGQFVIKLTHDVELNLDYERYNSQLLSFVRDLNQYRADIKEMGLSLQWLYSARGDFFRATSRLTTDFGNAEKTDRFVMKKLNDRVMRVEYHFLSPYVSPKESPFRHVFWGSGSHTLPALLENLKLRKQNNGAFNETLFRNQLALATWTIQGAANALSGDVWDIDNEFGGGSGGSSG
T2 sequence (P02786 89-760 limits assumed, form in doubt): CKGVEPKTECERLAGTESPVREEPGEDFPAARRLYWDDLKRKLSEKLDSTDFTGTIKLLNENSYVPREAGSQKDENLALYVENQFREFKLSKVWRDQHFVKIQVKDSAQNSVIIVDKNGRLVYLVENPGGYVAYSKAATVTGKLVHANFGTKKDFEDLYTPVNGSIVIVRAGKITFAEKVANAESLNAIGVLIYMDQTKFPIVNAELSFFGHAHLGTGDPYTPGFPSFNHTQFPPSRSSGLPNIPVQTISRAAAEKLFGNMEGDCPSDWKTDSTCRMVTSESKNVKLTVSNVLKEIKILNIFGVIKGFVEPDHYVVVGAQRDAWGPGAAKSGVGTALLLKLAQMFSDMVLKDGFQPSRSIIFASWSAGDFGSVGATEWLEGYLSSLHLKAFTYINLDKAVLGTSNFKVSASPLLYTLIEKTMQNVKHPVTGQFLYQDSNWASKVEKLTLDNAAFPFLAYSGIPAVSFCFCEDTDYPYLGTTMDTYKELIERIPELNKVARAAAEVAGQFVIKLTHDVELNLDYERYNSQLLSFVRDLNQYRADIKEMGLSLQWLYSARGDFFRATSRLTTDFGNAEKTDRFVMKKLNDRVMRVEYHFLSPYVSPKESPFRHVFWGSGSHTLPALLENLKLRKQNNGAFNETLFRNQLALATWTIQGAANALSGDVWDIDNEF

B3: 1590463-BCY17871 (peptide)
peptide: NWNCSPDAHLGCISYCX
modifications: not fully specified; as printed NWNCSPDAHLGCISYC[K(N3)]: N-terminal acetyl; C-terminal amide; three Cys bound to TATB scaffold; [K(N3)] 6-azido lysine at 17 joined via BCN linker to oligonucleotide 1590463
notes: also called Compound No. 1590463 conjugated to BCY17871
- Ki [4]: 6 nM
- Kd [5]: 2.4 nM

B5: 1590463-BCY17869 (peptide)
peptide: {oligonucleotide 1590463-BCN linker-azidopropyl″}-CSPDAHLGCISYC-NH2
modifications: linker 1-9-13 via TATB; reading uncertain
notes: also called Compound No. 1590463 conjugated to BCY17869
- Ki [4]: 55 nM
- Kd [5]: 14.5 nM

B6: 1590463-BCY17873 (peptide)
peptide: CSPDAHLGCISYCEPWX
modifications: not fully specified; as printed CSPDAHLGCISYCEPW[K(N3)]: N-terminal acetyl; C-terminal amide; three Cys bound to TATB scaffold; [K(N3)] 6-azido lysine at 17 joined via BCN linker to oligonucleotide 1590463
notes: also called Compound No. 1590463 conjugated to BCY17873
- Ki [2]: 1 nM
- Ki [4]: 6 nM
- Ki [7]: 7 nM
- Kd [5]: 12 nM
- Ki [1]: 4 nM
- Ki [3]: 10 nM

B7: 1590463-BCY17877 (peptide)
peptide: CSXDAHLGCISYCX
modifications: not fully specified; as printed CS[HyP]DAHLGCISYC[K(N3)]: N-terminal acetyl; C-terminal amide; three Cys bound to TATB scaffold; [HyP] 4-trans-hydroxy-L-proline at 3; [K(N3)] 6-azido lysine at 14 joined via BCN linker to oligonucleotide 1590463
notes: also called Compound No. 1590463 conjugated to BCY17877
- Ki [4]: 18 nM

B10: 1590463-BCY17880 (peptide)
peptide: {oligonucleotide 1590463-BCN linker-azidopropyl}-CS[Aze]DAHLGCISYC-NH2
modifications: linker 1-9-13 via TATB; reading uncertain; also: printed as CiS[Aze]DAHLGCiiISYCiii
notes: also called Compound No. 1590463 conjugated to BCY17880
- Ki [4]: 102 nM
- Kd [5]: 8.2 nM

B11: 1590463-BCY17868 (peptide)
peptide: CSPDAHLGCISYCX
modifications: not fully specified; as printed CSPDAHLGCISYC[K(N3)]: N-terminal acetyl; C-terminal amide; three Cys bound to TATB scaffold; [K(N3)] 6-azido lysine at 14 joined via BCN linker to oligonucleotide 1590463
notes: also called Compound No. 1590463 conjugated to BCY17868
- Ki [4]: 20 nM
- Kd [5]: 0.9 nM

B12: 1590463-BCY17870 (peptide)
peptide: NWNCSPDAHLGCISYCX
modifications: not fully specified; as printed NWNCSPDAHLGCISYC[K(N3)]: no N-terminal modification; C-terminal amide; three Cys bound to TATB scaffold; [K(N3)] 6-azido lysine at 17 joined via BCN linker to oligonucleotide 1590463
notes: also called Compound No. 1590463 conjugated to BCY17870
- Ki [4]: 7 nM
- Kd [5]: 0.1 nM

B13: 1590463-BCY17892 (peptide)
peptide: CSPDAHLGCISYCEXWX
modifications: not fully specified; as printed CSPDAHLGCISYCE[Aze]W[K(N3)]: N-terminal acetyl; C-terminal amide; three Cys bound to TATB scaffold; [Aze] azetidine at 15; [K(N3)] 6-azido lysine at 17 joined via BCN linker to oligonucleotide 1590463
notes: also called Compound No. 1590463 conjugated to BCY17892
- Ki [2]: 1 nM
- Ki [7]: 11 nM
- Ki [3]: 11 nM

B14: 1590463-BCY17882 (peptide)
peptide: NXNCSPDAHLGCISYCX
modifications: not fully specified; as printed N[dY]NCSPDAHLGCISYC[K(N3)]: N-terminal acetyl; C-terminal amide; three Cys bound to TATB scaffold; [dY] D-tyrosine at 2; [K(N3)] 6-azido lysine at 17 joined via BCN linker to oligonucleotide 1590463
notes: also called Compound No. 1590463 conjugated to BCY17882
- Ki [2]: 3 nM
- Ki [7]: 23 nM
- Ki [3]: 55 nM

B16: 1590463-BCY17878 (peptide)
peptide: {oligonucleotide 1590463-BCN linker-azidopropyl}-CS[Hyp]DAHLGCISYC-NH2
modifications: linker 1-9-13 via TATB; reading uncertain; also: printed as CS[HyP]DAHLGCISYC
notes: also called Compound No. 1590463 conjugated to BCY17878
- Ki [4]: 74 nM
- Kd [5]: 126 nM

B17: 1453015:1550983-BCY17873 (peptide)
peptide: CSPDAHLGCISYCEPWX
modifications: not fully specified; as printed CSPDAHLGCISYCEPW[K(N3)]: N-terminal acetyl; C-terminal amide; three Cys bound to TATB scaffold; [K(N3)] 6-azido lysine at 17 joined via BCN linker to sense strand 1550983 of the RNAi duplex 1453015:1550983
notes: nucleic acids; also called RNAi compound 1453015:1550983 conjugated to BCY17873
- Ki [8]: 9 nM
- Ki [9]: 38 nM

More lines, now with the values ahead:

- Ki [1]: 2 nM
B1: 1590463-BCY19406 (peptide)
peptide: Ac-CSPDAHLGCISYCEPW
modifications: linker 1-9-13 via TATB; not fully specified (C-terminus); printed as CSPDAHLGCISYCEPW[PEG24][K(N3)]; also: azide of C-terminal K(N3) clicked via BCN linker to oligonucleotide 1590463
notes: also called Compound No. 1590463 conjugated to BCY19406

- Ki [2]: 1 nM
- Ki [3]: 36 nM
B2: 1602000-BCY17873 (peptide)
peptide: CSPDAHLGCISYCEPWX
modifications: as printed CSPDAHLGCISYCEPW[K(N3)]: N-terminal acetyl; C-terminal amide; three Cys bound to TATB scaffold; [K(N3)] 6-azido lysine at 17 joined to oligonucleotide 1602000 ([PEG1alkyne] linker)
notes: also called Compound No. 1602000 conjugated to BCY17873

- Ki [6]: 1.4 nM
B4: 1591118-BCY17901 (peptide)
peptide: CPXDAYLGCXSYCEPWX
modifications: as printed CP[HyP]DAYLGC[tBuGly]SYCEPW[K(N3)]: N-terminal acetyl; C-terminal amide; three Cys bound to TATB scaffold; [HyP] 4-trans-hydroxy-L-proline at 3; [tBuGly] t-butyl glycine at 10; [K(N3)] 6-azido lysine at 17 joined via BCN linker to oligonucleotide 1591118
notes: also called Compound No. 1591118 conjugated to BCY17901

- Ki [6]: 9.9 nM
B8: 1598988-BCY17896 (peptide)
peptide: CPXDAYLGCXSYCX
modifications: as printed CP[HyP]DAYLGC[tBuGly]SYC[K(N3)]: N-terminal acetyl; C-terminal amide; three Cys bound to TATB scaffold; [HyP] 4-trans-hydroxy-L-proline at 3; [tBuGly] t-butyl glycine at 10; [K(N3)] 6-azido lysine at 14 joined via BCN linker to oligonucleotide 1598988

- Ki [2]: 2 nM
- Ki [3]: 23 nM
B9: 1614439-BCY17906 (peptide)
peptide: CSPDAHLGCISYCX
modifications: not fully specified; as printed CSPDAHLGCISYC[K(N3)(PYA-Maleimide)]: N-terminal acetyl; C-terminal amide; three Cys bound to TATB scaffold; modified lysine [K(N3)(PYA-Maleimide)] at 14 joined to oligonucleotide 1614439 (5' 6-mercaptohexanol linker)
notes: the coupling chemistry of this pair is not spelled out; also called Compound No. 1614439 conjugated to BCY17906

- Ki [2]: 1 nM
- Ki [7]: 4 nM
- Ki [3]: 4 nM
B15: 1590463-BCY17899 (peptide)
peptide: NWNCPXDAYLGCXSYCX
modifications: not fully specified; as printed NWNCP[HyP]DAYLGC[tBuGly]SYC[K(N3)]: N-terminal acetyl; C-terminal amide; three Cys bound to TATB scaffold; [HyP] 4-trans-hydroxy-L-proline at 6; [tBuGly] t-butyl glycine at 13; [K(N3)] 6-azido lysine at 17 joined via BCN linker to oligonucleotide 1590463
notes: also called Compound No. 1590463 conjugated to BCY17899
